# Data from the Immune Epitope Database (IEDB).
# pIC50, pKd: −log10 of the molar value.
# What was measured:
# [1] = molecular target: HLA-A*31:01; test: IEDB peptide-MHC binding, purified MHC/competitive/fluorescence; filed as Kd, often an IC50 or EC50 that approximates it; ≥ and ≤ were set here for values at or beyond the usual limits of such assays
# [2] = molecular target: HLA-A*03:01; test: IEDB peptide-MHC binding, purified MHC/direct/fluorescence; filed as Kd, often an IC50 or EC50 that approximates it; ≥ and ≤ were set here for values at or beyond the usual limits of such assays
# [3] = molecular target: HLA-A*11:01; test: as above
# [4] = molecular target: HLA-A*02:01; test: IEDB peptide-MHC binding, purified MHC/competitive/fluorescence; ≥ and ≤ were set here for values at or beyond the usual limits of such assays; conditions: source organism: Zaire ebolavirus
# [5] = molecular target: HLA-B*15:01; test: as above; conditions: source organism: Zaire ebolavirus
# [6] = molecular target: HLA-A*03:01; test: as above; conditions: source organism: Zaire ebolavirus
# [7] = molecular target: HLA-A*24:02; test: as above; conditions: source organism: Zaire ebolavirus
# [8] = molecular target: HLA-A*11:01; test: as above
# [9] = molecular target: HLA-B*58:01; test: IEDB peptide-MHC binding, purified MHC/direct/fluorescence; filed as Kd, often an IC50 or EC50 that approximates it; ≥ and ≤ were set here for values at or beyond the usual limits of such assays
# [10] = molecular target: HLA-B*15:17; test: as above
# [11] = molecular target: HLA-B*57:01; test: as above
# [12] = molecular target: HLA-A*02:01; test: IEDB peptide-MHC binding, purified MHC/competitive/fluorescence; filed as Kd, often an IC50 or EC50 that approximates it; ≥ and ≤ were set here for values at or beyond the usual limits of such assays
# [13] = molecular target: HLA-A*02:19; test: as above; conditions: source organism: Human immunodeficiency virus 1
# [14] = molecular target: HLA-A*69:01; test: as above; conditions: source organism: Human immunodeficiency virus 1
# [15] = molecular target: HLA-A*02:11; test: as above
# [16] = molecular target: HLA-C*05:01; test: IEDB peptide-MHC binding, purified MHC/direct/fluorescence; filed as Kd, often an IC50 or EC50 that approximates it; ≥ and ≤ were set here for values at or beyond the usual limits of such assays
# [17] = molecular target: HLA-A*69:01; test: as above; conditions: source organism: West Nile virus
# [18] = molecular target: HLA-B*83:01; test: IEDB peptide-MHC binding, purified MHC/competitive/fluorescence; filed as Kd, often an IC50 or EC50 that approximates it; ≥ and ≤ were set here for values at or beyond the usual limits of such assays; conditions: source organism: Yersinia pestis Nepal516
# [19] = molecular target: HLA-B*45:06; test: as above; conditions: source organism: Yersinia pestis Nepal516
# [20] = molecular target: HLA-B*15:42; test: as above; conditions: source organism: Yersinia pestis Nepal516
# [21] = molecular target: HLA-A*29:02; test: as above; conditions: source organism: Listeria monocytogenes FSL R2-561
# [22] = source organism: Mycobacterium tuberculosis
# [23] = source organism: Zaire ebolavirus
# [24] = source organism: Vibrio vulnificus YJ016
# [25] = source organism: Bacillus anthracis
# [26] = source organism: Human immunodeficiency virus 1
# [27] = source organism: West Nile virus
# [28] = source organism: Yersinia pestis
# [29] = source organism: Brucella abortus bv. 2 str. 86/8/59
# [30] = source organism: Camelpox virus CMS
# [31] = source organism: Eastern equine encephalitis virus (STRAIN VA33[TEN BROECK])
sequence,measurement,setting,value
AAMVLLLRK,pKd,[1]; source organism: Mycobacterium tuberculosis variant bovis BCG str. Pasteur 1173P2,≤ 4.70
same,pKd,[2]; [22],7.10
same,pKd,[3]; [22],≥ 9.00
AIGLAWIPY,pIC50,[4],≤ 3.61
same,pIC50,[5],5.84
same,pIC50,[6],5.81
same,pIC50,[7],≤ 3.78
same,pIC50,[8]; [23],4.21
ANNNRLPKR,pIC50,[8]; source organism: Vaccinia virus WR,4.93
ASLPKTSGH,pIC50,[5],≤ 3.85
same,pIC50,[6],4.70
same,pIC50,[8]; [23],5.58
ATGFPFFDR,pKd,[1]; [24],8.63
same,pKd,[2]; [24],≤ 4.70
same,pKd,[3]; [24],8.96
ATTAAGPPK,pIC50,[4],≤ 3.45
same,pIC50,[6],5.20
same,pIC50,[8]; [23],6.12
CSTLPFHTW,pKd,[9]; [25],8.42
same,pKd,[10]; [25],8.92
same,pKd,[11]; [25],8.15
ELADQLIHL,pKd,[12]; [26],5.94
same,pKd,[13],8.17
same,pKd,[14],≥ 9.00
same,pKd,[15]; [26],7.58
EMYRHILRS,pIC50,[4],5.05
same,pIC50,[6],≤ 4.01
FLAVGGVLL,pKd,[16]; [27],5.38
same,pKd,[17],≤ 4.70
FPSVFINPV,pKd,[16]; source organism: Myxoma virus,≤ 4.70
FSLGQGVKF,pKd,[10]; source organism: Shigella flexneri,8.72
GSYFSGFYK,pKd,[18],≤ 5.30
same,pKd,[19],≤ 5.30
same,pKd,[1]; source organism: Yersinia pestis Nepal516,≥ 9.00
same,pKd,[20],≤ 5.30
same,pKd,[2]; [28],7.86
same,pKd,[3]; [28],≥ 9.00
IFFLPQFYY,pKd,[21],8.80
ILDDPEIYP,pKd,[12]; [29],4.92
same,pKd,[15]; [29],6.17
ISIPRSVGF,pKd,[9]; [30],7.52
same,pKd,[10]; [30],≥ 9.00
same,pKd,[11]; [30],7.07
ITYGSVSWR,pKd,[1]; source organism: Eastern equine encephalitis virus,8.82
same,pKd,[2]; [31],7.21
same,pKd,[3]; [31],8.17
ITYTDVLRY,pKd,[1]; [27],≤ 4.70
same,pKd,[9]; [27],7.42
same,pKd,[10]; [27],≥ 9.00
same,pKd,[2]; [27],6.84
same,pKd,[11]; [27],6.98
same,pKd,[3]; [27],7.83
